Bridge positions count the residues as written; N and C are the ends. Square brackets hold non-standard residues; d marks the D form. Primed or numbered codes have the meaning given here. Ends that are not written are not given here. R8 = C=CCCCCCC[C@@](C)(N)C(=O)O; S5 = C=CCCC[C@](C)(N)C(=O)O; FITC′ = not defined here; Nle = CCCC[C@H](N)C(=O)O
T1: native UBA1 in HeLa cell lysate (human, UniProt P22314 2-1058, limits assumed)
T1 construct: Endogenous protein in HeLa cell lysate or S100 fraction; also called UBE1
T1 sequence: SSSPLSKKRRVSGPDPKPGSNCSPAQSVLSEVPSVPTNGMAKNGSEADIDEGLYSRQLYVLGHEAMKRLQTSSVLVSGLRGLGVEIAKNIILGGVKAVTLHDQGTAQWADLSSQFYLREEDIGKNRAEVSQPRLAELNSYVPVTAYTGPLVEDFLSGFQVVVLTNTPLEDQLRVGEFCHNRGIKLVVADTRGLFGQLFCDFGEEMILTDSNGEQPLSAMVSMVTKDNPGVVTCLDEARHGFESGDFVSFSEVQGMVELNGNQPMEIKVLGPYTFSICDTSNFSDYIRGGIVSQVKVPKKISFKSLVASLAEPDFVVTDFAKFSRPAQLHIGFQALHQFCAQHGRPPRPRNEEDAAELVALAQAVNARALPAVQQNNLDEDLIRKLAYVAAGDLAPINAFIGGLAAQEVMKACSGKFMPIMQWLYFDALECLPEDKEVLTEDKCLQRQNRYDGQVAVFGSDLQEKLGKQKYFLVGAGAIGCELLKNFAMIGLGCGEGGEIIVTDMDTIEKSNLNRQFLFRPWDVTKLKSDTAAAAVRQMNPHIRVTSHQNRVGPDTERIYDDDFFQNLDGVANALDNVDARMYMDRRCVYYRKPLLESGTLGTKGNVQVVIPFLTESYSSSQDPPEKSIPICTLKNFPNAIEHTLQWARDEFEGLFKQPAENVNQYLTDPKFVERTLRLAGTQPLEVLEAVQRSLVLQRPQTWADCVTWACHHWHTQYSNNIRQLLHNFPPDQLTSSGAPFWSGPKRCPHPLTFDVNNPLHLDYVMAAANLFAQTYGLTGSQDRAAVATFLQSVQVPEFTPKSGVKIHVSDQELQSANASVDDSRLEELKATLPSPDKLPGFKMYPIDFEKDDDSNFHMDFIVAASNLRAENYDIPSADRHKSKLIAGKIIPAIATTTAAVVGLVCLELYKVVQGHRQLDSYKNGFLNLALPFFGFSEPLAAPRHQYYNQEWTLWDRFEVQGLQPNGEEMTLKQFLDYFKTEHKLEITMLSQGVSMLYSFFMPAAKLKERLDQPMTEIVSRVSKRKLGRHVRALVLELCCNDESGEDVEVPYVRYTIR

T2: recombinant human E1 activating enzyme UBA1 (human, UniProt P22314 1-1058, limits assumed)
T2 construct: also called UBE1
T2 sequence: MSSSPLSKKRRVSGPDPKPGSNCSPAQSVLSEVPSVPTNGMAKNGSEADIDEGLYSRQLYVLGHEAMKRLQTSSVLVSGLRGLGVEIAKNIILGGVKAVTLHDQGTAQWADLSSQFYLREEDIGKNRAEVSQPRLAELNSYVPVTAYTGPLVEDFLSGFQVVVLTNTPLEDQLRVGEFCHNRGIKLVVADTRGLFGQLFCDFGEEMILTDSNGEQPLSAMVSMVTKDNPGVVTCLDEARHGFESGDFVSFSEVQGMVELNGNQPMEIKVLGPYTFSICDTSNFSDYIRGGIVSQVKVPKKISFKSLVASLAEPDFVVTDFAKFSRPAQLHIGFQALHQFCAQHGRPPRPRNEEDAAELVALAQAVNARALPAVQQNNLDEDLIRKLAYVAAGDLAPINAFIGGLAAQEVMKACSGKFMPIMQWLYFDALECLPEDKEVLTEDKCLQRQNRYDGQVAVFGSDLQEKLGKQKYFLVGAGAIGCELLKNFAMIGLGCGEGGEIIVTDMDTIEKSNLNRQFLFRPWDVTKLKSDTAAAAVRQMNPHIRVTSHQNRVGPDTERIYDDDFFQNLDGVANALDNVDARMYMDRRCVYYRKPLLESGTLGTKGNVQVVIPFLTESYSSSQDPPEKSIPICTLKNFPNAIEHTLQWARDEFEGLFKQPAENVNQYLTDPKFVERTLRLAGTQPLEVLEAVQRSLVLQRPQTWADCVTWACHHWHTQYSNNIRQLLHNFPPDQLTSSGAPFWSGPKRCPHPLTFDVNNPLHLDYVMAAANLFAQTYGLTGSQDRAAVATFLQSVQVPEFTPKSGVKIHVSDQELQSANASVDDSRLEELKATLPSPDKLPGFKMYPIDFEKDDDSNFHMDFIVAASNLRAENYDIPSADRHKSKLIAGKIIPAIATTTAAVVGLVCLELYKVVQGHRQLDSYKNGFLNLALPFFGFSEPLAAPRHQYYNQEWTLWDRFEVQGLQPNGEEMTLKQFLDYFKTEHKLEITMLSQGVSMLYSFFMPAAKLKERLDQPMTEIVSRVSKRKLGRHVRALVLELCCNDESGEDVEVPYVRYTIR

T3: His-tagged UBA1 captured on Ni-NTA agarose beads (human, UniProt P22314 1-1058, limits assumed)
T3 construct: also called His-UBA1; His-UBE1; not shown: His tag
T3 sequence: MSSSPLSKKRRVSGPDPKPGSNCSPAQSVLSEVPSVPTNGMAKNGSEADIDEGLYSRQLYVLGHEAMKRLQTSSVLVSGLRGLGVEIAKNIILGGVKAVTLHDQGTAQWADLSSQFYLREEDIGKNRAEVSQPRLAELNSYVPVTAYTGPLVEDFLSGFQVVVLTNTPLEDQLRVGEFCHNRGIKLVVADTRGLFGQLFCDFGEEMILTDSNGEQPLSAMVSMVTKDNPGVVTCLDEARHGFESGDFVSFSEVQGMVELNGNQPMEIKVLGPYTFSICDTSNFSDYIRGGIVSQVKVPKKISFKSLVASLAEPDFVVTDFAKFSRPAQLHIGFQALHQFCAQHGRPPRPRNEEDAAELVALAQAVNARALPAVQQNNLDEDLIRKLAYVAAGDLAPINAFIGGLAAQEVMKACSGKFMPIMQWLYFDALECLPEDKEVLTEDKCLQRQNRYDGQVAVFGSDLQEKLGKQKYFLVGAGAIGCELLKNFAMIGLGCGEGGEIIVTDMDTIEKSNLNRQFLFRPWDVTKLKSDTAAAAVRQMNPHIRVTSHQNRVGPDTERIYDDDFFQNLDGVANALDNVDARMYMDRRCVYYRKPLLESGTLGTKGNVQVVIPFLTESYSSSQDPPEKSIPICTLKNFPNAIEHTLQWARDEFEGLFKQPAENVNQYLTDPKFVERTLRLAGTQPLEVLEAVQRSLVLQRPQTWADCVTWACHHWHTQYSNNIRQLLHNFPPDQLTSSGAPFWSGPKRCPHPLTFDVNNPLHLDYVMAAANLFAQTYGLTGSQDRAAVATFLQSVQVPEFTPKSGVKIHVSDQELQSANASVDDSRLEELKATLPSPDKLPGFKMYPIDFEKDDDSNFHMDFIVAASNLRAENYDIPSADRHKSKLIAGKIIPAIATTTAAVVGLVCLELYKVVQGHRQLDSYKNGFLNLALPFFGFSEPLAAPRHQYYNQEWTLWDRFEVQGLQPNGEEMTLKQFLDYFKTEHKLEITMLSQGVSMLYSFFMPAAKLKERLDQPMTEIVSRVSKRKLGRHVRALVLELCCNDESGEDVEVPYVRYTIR


Legend:
[1] = molecular target: T1, native UBA1 in HeLa cell lysate; assay: streptavidin-biotin pull-down from HeLa cell lysate, western blot
Experimental: (§1) 30 μL of pre-equilibrated streptavidin agarose beads were then added and incubated for an additional 1.5 hours at 4° C. The beads were pelleted by centrifugation and washed three times with NP-40 buffer (20 mM HEPES, pH 7.4, 50 mM NaCl, 5 mM DTT, 0.5% [v/v] NP-40) before eluting the protein sample from the beads by heating at 70° C. for 10 min in 3×SDS loading buffer. Samples were subjected to electrophoresis and silver staining (Pierce 24612). […] 30 μL of pre-equilibrated streptavidin agarose beads (ThermoFisher 20357) were then added and incubated for an additional 1.5 hours at 4° C. The beads were pelleted by centrifugation and washed three times with NP-40 buffer (20 mM HEPES, pH 7.4, 50 mM NaCl, 5 mM DTT, 0.5% [v/v] NP-40) before eluting the protein sample from the beads by heating at 70° C. for 10 min in 3×SDS loading buffer. Proteins were separated by SDS-PAGE gel electrophoresis and detected by western blot against UBE1 (Abcam ab34711). […] Conjugation of ubiquitin to E2 by E1 is monitored by conversion of free E2 (17 kDa) to E2˜ubiquitin conjugate (26 kDa). Quantitation of percent inhibition was calculated from densitometry of silver stain images.

[2] = molecular target: T2, recombinant human E1 activating enzyme …; assay: streptavidin-biotin pull-down, silver-stained protein gel
Experimental: as §1

[3] = molecular target: T3, His-tagged UBA1 captured on Ni-NTA …; assay: fluorescence microscopy of Ni-NTA agarose beads carrying His-UBA1; 10 µM FITC-labeled peptide
Experimental: Fluorescence Microscopy: His-tagged UBA1 (25 μg) was incubated with Ni-NTA agarose beads (100 μl) (Invitrogen™ R90110) in PBS for 30 min. […] Beads were plated in 386-well plate format (10 μl/well) (Corning 384-well High Content Imaging Glass Bottom Microplate) and imaged with an Olympus wide-field epifluorescence microscope, a 63× LCPlanFL NA 0.7 objective, and a CoolSNAP DYNO camera.

[4] = molecular target: T2, recombinant human E1 activating enzyme …; assay: fluorescence polarization, without and with ubiquitin and ATP
Source text: In vitro Binding Assays: To assess the binding and affinity of ligands to acceptor proteins, a fluorescence polarization assay (FPA) can be used, for example. The FPA technique measures the molecular orientation and mobility using polarized light and fluorescent tracer.

[5] = molecular target: T4, His-tagged p53 (UniProt P04637 1-393, limits assumed); assay: fluorescence microscopy of Ni-NTA agarose beads carrying His-p53, incubated with FITC-labeled peptide
T4 construct: Control protein captured on Ni-NTA agarose beads; also called His-p53; unrelated protein control; not shown: His tag
T4 sequence (P04637 whole entry): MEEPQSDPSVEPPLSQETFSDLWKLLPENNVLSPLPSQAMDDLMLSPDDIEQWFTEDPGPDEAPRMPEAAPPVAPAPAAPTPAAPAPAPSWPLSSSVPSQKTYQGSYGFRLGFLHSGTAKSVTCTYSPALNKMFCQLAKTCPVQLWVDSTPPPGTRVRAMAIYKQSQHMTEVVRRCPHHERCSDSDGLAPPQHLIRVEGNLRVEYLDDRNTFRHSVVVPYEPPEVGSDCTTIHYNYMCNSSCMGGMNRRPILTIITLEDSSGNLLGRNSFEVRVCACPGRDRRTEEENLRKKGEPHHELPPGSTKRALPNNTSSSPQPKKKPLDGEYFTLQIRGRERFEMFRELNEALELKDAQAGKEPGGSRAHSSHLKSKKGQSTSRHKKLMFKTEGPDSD

binding result [1] | binding result [2] | binding result [3] | binding result [4] | binding result [5] | Binder
binds | binds | – | – | – | Ac-[Nle]STP[R8]RRRL[Nle]R[S5]FKRLQ-biotin (staple 5-12, also called biotinylated peptide; not shown: C-terminal biotin handle) [C-terminally biotinylated SAH-UBE2A]
– | – | binds | binds | no binding (tested: 10 µM) | [Nle]STP[R8]RRRL[Nle]R[S5]FKRLQ-{FITC′} (staple 5-12, also called FITC-labeled SAH-UBE2A-11; FITC-labeled peptide) [FITC-SAH-UBE2A (FITC conjugated to SEQ ID NO: 132)]
